Experimental data from PMC7443878 (Proceedings of the National Academy of Sciences of the …, 2020).

B1: His-MBP-RIPK3 (388–514) (domain or fragment)
chain: SSDSMAQPPQTPETSTFRNQMPSPTSTGTPSPGPRGNQGAERQGMNWSCRTPEPNPVTGRPLVNIYNCSGVQVGDNNYLTMQQTTALPTWGLAPSGKGRGLQHPPPVGSQEGPKDPEAWSRPQGWYN

Tests used:
His-MBP-RIPK3 (388–514) = biological target: B1; assay: pull-down
MBP-MYC (1–144) = MBP-MYC (1–144) (UniProt P01106-1 1-144); assay: pull-down
MBP-MYC (1–144), sequence (P01106 16-159): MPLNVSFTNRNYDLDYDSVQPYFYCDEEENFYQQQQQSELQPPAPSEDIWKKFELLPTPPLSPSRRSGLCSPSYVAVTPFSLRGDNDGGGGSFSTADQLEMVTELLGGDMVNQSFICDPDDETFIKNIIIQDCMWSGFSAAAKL

| Binder | binding result (His-MBP-RIPK3 (388–514)) | binding result (MBP-MYC (1–144)) |
| --- | --- | --- |
| recombinant MBP-RIPK1 RHIM domain (496–583) (domain or fragment) HMPSLHNIPVPETNYLGNTPTMPFSSLPPTDESIKYTIYNSTGIQIGAYNYMEIGGTSSSLLDSTNTNFKEEPAAKYQAIFDNTTSLT | binds |  |
| B1 |  | binds |
